Source: publication PMC7363131

Biological target: S. venezuelae WhiD (SvWhiD), N-terminally His6-tagged, full length (S. venezuelae)
Experiment: native MS; nondenaturing ESI-MS, 250 mM ammonium acetate, pH 7.2; SvWhiD alone (10 μM) or a 2:1 mixture of σ^HrdB4 and SvWhiD

- stoichiometry N: 2
Substance: S. venezuelae WhiD (SvWhiD), N-terminally His6-tagged, full length (natural protein)
